What all share (conditions): both partners purified
Experiment [1] addresses T1, NorC WT (Staphylococcus aureus subsp. aureus COL …).
T1 construct: also called NorC wild-type; source: E. coli C41(DE3), extracted from membranes in DDM, purified (Ni-NTA, SEC in DM)
T1 chain: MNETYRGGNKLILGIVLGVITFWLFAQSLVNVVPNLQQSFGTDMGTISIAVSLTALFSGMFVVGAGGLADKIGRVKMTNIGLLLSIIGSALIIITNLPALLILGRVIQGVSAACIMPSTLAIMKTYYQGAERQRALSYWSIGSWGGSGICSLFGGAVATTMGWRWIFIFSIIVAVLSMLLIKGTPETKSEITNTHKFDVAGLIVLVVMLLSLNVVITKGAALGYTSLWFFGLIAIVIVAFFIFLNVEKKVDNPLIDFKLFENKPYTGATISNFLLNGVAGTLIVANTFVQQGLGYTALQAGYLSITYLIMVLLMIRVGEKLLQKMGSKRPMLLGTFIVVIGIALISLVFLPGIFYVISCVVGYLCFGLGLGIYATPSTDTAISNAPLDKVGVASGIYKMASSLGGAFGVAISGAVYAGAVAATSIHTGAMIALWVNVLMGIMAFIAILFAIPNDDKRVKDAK
The experiment can be described thus: ITC; ICab (200 uM, syringe) titrated into NorC WT (20 uM, cell) with 1 mM TPP in both cell and syringe; 25 °C; 20 mM HEPES pH 7.0, 200 mM NaCl, 4 mM n-decyl-beta-D-maltopyranoside; 16 injections of 2.5 ul; one set of sites model.

Experiment [2] addresses T1, NorC WT. Description: ITC; ICab (200 uM, syringe) titrated into NorC WT (20 uM, cell); 25 °C; 20 mM HEPES pH 7.0, 200 mM NaCl, 4 mM n-decyl-beta-D-maltopyranoside; one set of sites model. In general terms: In ITC the heat of successive injections is recorded.
Experiment [3] concerns the target T2, NorC WT (wild-type) (Staphylococcus aureus subsp. aureus COL …).
T2 chain: T1 chain
The experiment can be described thus: ITC; ICab (200 uM) in the syringe titrated into NorC WT (20 uM) in the cell; 25 °C; 20 mM HEPES pH 7.0, 200 mM NaCl, 4 mM n-decyl-beta-D-maltopyranoside; one set of sites model.

For experiment [4], the target named is T2, NorC WT (wild-type). Description: ITC; ICab (200 uM) in the syringe titrated into NorC WT (20 uM) in the cell, with 1 mM TPP in both cell and syringe; 25 °C; 20 mM HEPES pH 7.0, 200 mM NaCl, 4 mM n-decyl-beta-D-maltopyranoside; 16 injections of 2.5 ul; one set of sites model.
For experiment [5], the target named is T3, NorC WT (wild-type) (Staphylococcus aureus subsp. aureus COL …).
T3 construct: not shown: His8, C-terminal, kept
T3 chain: T1 chain
Description: ITC; as without TPP+, but in the presence of 1 mM TPP+; 16 injections of 2.5 ul; 25 °C; 20 mM HEPES pH 7.0, 200 mM NaCl, 4 mM DM.

Experiment [6] has as its target T3, NorC WT (wild-type). Description: MST; 10 nM transporter labelled with red Tris-NTA dye, ICab titrated from 5 uM in twofold dilutions; Monolith NT.115 premium-coated capillaries; single-site binding model.

B1: single-domain Indian camelid antibody (ICab) (VHH)
VHH: QVQLEESGGGSVQAGGSLRLSCAASGYMYSTYSTYCMGWFRQAPGKEREGVAFIKRGDHSTYYTDSVKGRFTISQDSAKNTVSLQMNNLKPEDTAIYYCAADFAHSFLLSVHSGAGQYSYWGQGTQVTVSS
As for B1, the “stoichiometry N” value with NorC WT [1] came out at 1.14 ± 0.012; in the experiment with NorC WT [2] it was 1.04 ± 0.005. Also, binding with NorC WT [2] was put at a Kd of 46.6 ± 8.9 nM.

B2: single-domain Indian camelid antibody (ICab) (VHH)
VHH: B1 VHH
notes: also called single-domain camelid antibody
Consider B2, for which the dissociation constant (Kd) in the experiment with NorC WT (wild-type) [3] worked out at 46.6 nM. Moreover, the results for the “stoichiometry N” value with NorC WT (wild-type) [3] and with NorC WT (wild-type) [4] were 1.04 and 1.14, respectively.

B3: Zn2+-bound single-domain Indian camelid antibody (ICab) (VHH)
VHH: B1 VHH
notes: also called single-domain camelid antibody; vhh
In the case of B3, the dissociation constant Kd with NorC WT (wild-type) [5] was 35.6 ± 16 nM; in the experiment with NorC WT (wild-type) [6], 37.5 ± 16 nM.

One may read the stoichiometry N as the number of molecules, sites or subunits per partner or assembly. What is called Kd is the concentration at which binding is half-saturated.

The values above are taken from PMC8257674, “Structural basis of inhibition of a transporter from Staphylococcus aureus, NorC, through a single-domain camelid antibody” (Communications Biology, 2021).
